Reference: the DeepSol protein solubility set

Assay: soluble on expression in E. coli; label from the status in PepcDB or PDB records

| Sequence | soluble on expression in E. coli |
| --- | --- |
| MTATKQTAQVTAVADGTVVTPKGFQAAGVHAGLRYSKNDLGVILCDVPASAAAVYTQSHFQAAPLKVTQASLAVEQKLQAVIVNSACANACTGEQGLKDAYEMRELCAKQFGLALHHVAVASTGVIGEYLPMEKIRAGIEKLVPGATMADAEAFQTAILTTDTVMKRACYQTTVDGKTVTVGGAAKGSGMIHPNMATMLAFITTDANVSSPVLHAALRSITDVSFNQITVDGDTSTNDMVVVMASGLAGNDELTPDHPDWENFYEALRKTCEDLAKQIAKDGEGATKLIEVRVRGAKTDEEAKKIAKQIVGSNLVKTAVYGADANWGRIIGAIGYSDAEVNPDNVDVAIGPIVMLKGSEPQPFSEEEATAYLQQETVVIEVDLHLGDGFGVAWGCDLTYDYVKINASYRT | not soluble |
| MTAVETKKQYLTVFKEDGIAEIHLHINKSNSYDLEFYKEFNAAIDDIRFDPDIKVVIVMSDVPKFFSAGADINFLRSADPRFKTQFCLFCNETLDKIARSPQVYIACLEGHTVGGGLEMALACDLRFMGDEAGKIGLPEVSLGVLAGTGGTQRLARLIGYSRALDMNITGETITPQEALEIGLVNRVFPQAETRERTREYARKLANSATYAVSNIKLAIMNGKEMPLNVAIRYEGELQNLLFRSEDAKEGLSAFLEKRQPNWKGI | soluble |
| MTDALEQSVLALEGTVSVLKDSVESLKCANEPSTNLASTMLQTKRVFRLVPEYDVERSKLDLIEEVEPLVRTLGDKLRKSMGRMQRELDTLQQTYELNDLRLKKNISMDDDDALNSPDMGQEYEGRDADDVVMMASSTNEELEELKKLKEKKKQLENKLEILKQK | soluble |
| MTDESDSTAHVSCIIPVYNDSVGIKNTLRSVVGQEYHGYDVYVVDNGSTDGSRRRVRNCAAESDDIQLLVEDEVQGSYAARKTGVQNAESDVLAFLDADETVDEDWLETALGAMQEQDVDYLGCNVELTCPEDTLVGRYNARTGFPVEEYLEDQNYAPTCALLVRRKVFEDVGPFDARLISGGDREFGDRVHDAGYEQGYAENATVYHPARTSLESLAKKNFRVGRGFCQKQRYYPERYGKPGIPPTPSGPSGGDDGDEPDASLTRLAFTLLSIAMLACRGVGYYYEFVVGEENDDIPAPTSLEHHHHHH | not soluble |
| MTDGTPTTLTDRIEAALRDVRDPNADLSVFDAGFVENIDAADGEVTIEADLTALDGQTSTQVVQAMLHAVDDVDGVDSVHVERTTPTGEGNAGVESFDRVVAVASAKGGVGKSTVATHLACALAADNDVALFDADIHGPNVPELLDVSGPVHSSEEGDPLPVRAGDMDVMSVGLMESGAPLAWRGAMAHDALNDLFENTAWRNDDVLVLDLPPGTGDVVLTTLQEVPVDGVVVVTTPFHASVSDTSRTVELFRDNDVPVLGTVVNMAEYVCDCCGEPNDLFTGDALGDLDAEVLAELPFSHDLQGTPAPGSVPDAVSSLGDAVESALDTAGEVGVDPTADIRDLQPQERKDRVRERFTALDSGEPFVLVSDRDPTPVGQFLGRLAEAPREAFDPFEVRRETPEAWVLETAKPLEHHHHHH | soluble |
| MTDHLRGFYKAEFETARKKAHGVIFLHDGKIQGGDSTFLYSGAYSQSGLTVAGNLRGVRYSSDHSRLSVFGIEPFEITFDGVAKDGYVTIEGYAHETPSLPLKAILTRVDD | not soluble |
| MTDLELQQLVATISMHDFHRPFQHRAYFNARLRTTGGRYQLASHDIDINPKMLTDFDEATLIGVIKHELCHYHLHLTKRGYRHRDADFKRLLAQVGGSRYAPAPKQATARPYRYIYECQRCGRRYYRKRRMDTRRYTCGRCQGPIKLVLEHHHHHH | soluble |
| MTDLFASGDNSSNSFDDSNDEIARKNETAFKYTTIFHTNLSEKLYHELCALAFGEFDIPQGQISPLMWTRLHEIYSEVEMQTRKLPAGSNYSASSQKYANEAVQIASVLSIYTALAHEYDETVEVSLLSKLVVEDVEFRRIYALLLWSEKAISEQQYEKGLGDKVRKLEGIKSSRINSMMALKRPTFGAANAPKDASLDPDAPGTKEDQALEQMAMNVFFQLIRSGETSKAANLAIDLGMGAIGAQLQLHSMLRNPLDIPLEASKQNFGEYKRSRRAKYYQMTQKLIEQSQGSEDDAYWMLISAIRGNIQPMLKAGKSVIEKVWAYANSAVLARILAAEGAMTQETISTLFNVPLTSKSILDELRSEADRTKEVYILLRVIDDMLNDDIEDLYKFANETVGEFVPNDKNCQVNMLALDIFFHLVAVSYASGFEPNDDGNAVIILGFDDLRARSGTSSHKKMAAFYSRFLPEDMKLPEIVETMKAVDSDEEREILAESLKQSDIDFGRCACTLIEQIRKDDKTKVVTLEEQIDHWHWLLIGGEETALAALEECNRLVRKVMLSTPIDESVIRQIIRKALHFEVPKLLSQAVENEATVLSLITDGTLFEQKPGSQLAINKIEHAALEFYGLCSFVDVNNFMITIALKLGLMFKYTPITDDELSMIGGVKRLDNTTAADWEASLRVRARAEQTLREEVLKKRAAEHNTRVGMVQQHLDTVLPMLRGLVNNIGVRPEYFLSPRANGDPMRVHRKEIQEIRNLFLPQFFILLAQAAVRLDDTTNFNDFFTSFNNDLGLDQEWMVFIKAFYAELNLKVE | soluble |
| MTDLSRSQFGFRKARSTVDVVNIVVKVAAQAIEGIMVTLDIRNVFNTARWDRIIKALIGFGELAYLVRIIRSYFSKRVLLCESSEGVFSPQVTGGVPKGSVLGQLLWNAMKTGYFAYHWLRGTNRRLRGRRGFARCLEHHHHHH | not soluble |
| MTDNTAVRRRYEKSFTERPGFTEDEIEEIREAFNLLDTDGTGTIDPKEIKCAMQSLGLDAKNPMIFRMIADLEKDGYSSIDFEEFMEVITSKLGNKDTREGIQRIFNLFDDDKTGSISLKNLKRVAKELGETLTDEELRDMIDRADSKGEGEISFEDFYTIMTKKSFL | not soluble |
| MTDQPISLEEIRLRLNELDDQLLSLLSERRKLSIEVAKSKVQTSKPVRDAVREQQLLVKLISNGRDKYELDAQYITKLFHTIIEDSVLLQQGYLQNLVNPQQSRKPLARVAFLGAKGSYSHLASREYFSRKNTELIELNCEHFKEVTRTVESGHADYGVLPIENTSSGSINEVYDLLQHTTLYIVGELTQPIEHCLVATKDIRLEDIKTLYSHPQPHQQCSEFLSRMKGVKLESCASTADAMQKVQEMNRDDVAAIGNASSGKLYGLQAIQGNIANQTENHTRFIVVARKPVEVSTQIPAKTTLIMSTSQEAGSLVETLLVLQRYGINMTKLESRPIMGNPWEEMFYVDLEAHLGSTEMQQALQELTKITKHLKVLGCYPSENIKPTQVKLS | not soluble |
| MTDSKYFTTNKKGEIFELKAELNNEKKEKRKEAVKKVIAAMTVGKDVSSLFPDVVNCMQTDNLELKKLVYLYLMNYAKSQPDMAIMAVNSFVKDCEDPNPLIRALAVRTMGCIRVDKITEYLCEPLRKCLKDEDPYVRKTAAVCVAKLHDINAQMVEDQGFLDSLRDLIADSNPMVVANAVAALSEISESHPNSNLLDLNPQNINKLLTALNECTEWGQIFILDCLSNYNPKDDREAQSICERVTPRLSHANSAVVLSAVKVLMKFLELLPKDSDYYNMLLKKLAPPLVTLLSGEPEVQYVALRNINLIVQKRPEILKQEIKVFFVKYNDPIYVKLEKLDIMIRLASQANIAQVLAELKEYATEVDVDFVRKAVRAIGRCAIKVEQSAERCVSTLLDLIQTKVNYVVQEAIVVIRDIFRKYPNKYESIIATLCENLDSLDEPDARAAMIWIVGEYAERIDNADELLESFLEGFHDESTQVQLTLLTAIVKLFLKKPSETQELVQQVLSLATQDSDNPDLRDRGYIYWRLLSTDPVTAKEVVLSEKPLISEETDLIEPTLLDELICHIGSLASVYHKPPNAFVEGSHGIHRK | soluble |
| MTDSPGGVAPASPVEDASDASLGQPEEGAPCQVVLQGAELNGILQAFAPLRTSLLDSLLVMGDRGILIHNTIFGEQVFLPLEHSQFSRYRWRGPTAAFLSLVDQKRSLLSVFRANQYPDLRRVELAITGQAPFRTLVQRIWTTTSDGEAVELASETLMKRELTSFVVLVPQGTPDVQLRLTRPQLTKVLNATGADSATPTTFELGVNGKFSVFTTSTCVTFAAREEGVSSSTSTQVQILSNALTKAGQAAANAKTVYGENTHRTFSVVVDDCSMRAVLRRLQVGGGTLKFFLTTPVPSLCVTATGPNAVSAVFLLKPQK | soluble |
| MTDTAENQTQNNWQAGHPRSIRSFVLRQSHMTAAQQRAIDTLWDSFGIDYQATPADLDARFGSSRPKILEIGFGMGTATAEIARRLPETDFLAIDVHGPGVGNLLKLIDENHLENIRVMRHDAVEVVENMLQDGSLDGIHIFFPDPWHKKRHHKRRLIQAPFIAKLLPKLKTGGYIHLATDWEEYAQQMLEVLSSFDSLQNTAADYAPTPDYRPETKFEARGKRLGHGVWDLVFKRIG | not soluble |
| MTDTDTQADRFEQMMWQAVDKLFEQHDGKLESMDGREQELVLIWRTEADIGNGSILQFVCNWGFPAAEKTCSVLKKIGAVHSAMLIHRAADALDKEIRRLQSEGKNLKEMWDITSRQQNRLTAEQSG | not soluble |
| MTDTLLPAAPQPLEKEGDDYFRKGCNPLAQTGRSKLQNQRAALNQQILKAVRMRTGAENLLKVATNQKVREQVRLELSFVNSDLQMLKEELEGLNISVGVYQGTEEAFTIPLIPLGLKETKEVDFSIVFKDFILEHYSEDSYLYEDDIADLMDLRQACRTPSRDEAGVELLMSYFIQLGFVESRFFPPTRHMGLLFTWYDSFTGVPVSQQTLLLEKASVLFNIGALYTQIGTRCNRQTQAGLESAVDAFQRAAGVLNYLKETFTHTPSYDMSPAMLSVLVKMMLAQAQESVFEKVCLPGIQNEFFVLVKVAQEAAKVAEAYRQLHAAMSQEPVKENIPYSWASVAYVKAYHYGALAHYFAATLLIDHQLKPGADEDHQEKCLSQLYDRMPEGMTPLATLKNAGQRVLLGKGHLHRAIGFHEESLREANLCKKLRDIQVLRDVLSAAHQRTQLKHTQHREDDDLLNLIDAPDVLPKTEREVKITFPDFSKVTVTDFFQKLGPLSVFSASKRWSPPRGIHFTVEEGDLGFTLRGNTPVQVHFLDPHCSASLAGAKEGDYIVSIQGVDCKWLTVSEVMKLLKSFGGEEVEMKVVSLLDSTSSMHNKCATYSVGMQKTYSMICLSMDDDDKADKTKKISKKLSFLSWGTSKNRQKSASTLCLPEVGLARSQNKKKLPTPFSLLNSDSSLY | soluble |
| MTEETKPIKIAVIRCDIVSEACPGVGCFKAFNERKSYFKEYDEKAQMIAFFTCGGCSGRRVYRLLKALKKHNPDVVHLSSCMLMEDSYPRCPNIDTIRKTIQDAGIKVVEGTHH | not soluble |
| MTEITGGTLVLVGADHPVAHLDVTAFEASVTHDVMAASVAGTGLGVSTATAAGLSHLVVDAGVAQPVQGARSVRIRGERGDLRHADAMTPVQVEALLRDGQALGAEASHDGLVCLGEVGVGNTTIATALACAMTGLGPDEAVGLGAGSDTAMVERKAEIIKAALTRTHTDPNDPERLLAALGGPEFAVLAGVCLGAAEAGSPVVLDGLATSVAALIATKFSPGLHGWLVASQASREQVHHIVLAELGLEALMELRMRAGEGVGACFGAQMILTGLQVRRTAARTCLEHHHHHH | not soluble |
| MTEITHRTKTRPVKVGNLTIGGNNEVVVQSMTTTKTHDVEATVAEIKRLEEAGCQVVRVACPDMRAAEAIPAIKKQISIPLVVDIHFDYKLALKAIEGGADKIRINPGNIGKRHKVEAVVKAAKEKGIPIRIGVNAGSLEKRILDKYGYPTADGMVESALHHIKILEDLDFHDIIVSMKASDVNLAIEAYEKAAKAFDYPLHLGITESGTLFAGTVKSAAGLGAILNMGIGNTVRVSLSADPVEEVKVARELLKSFGLASNAATLISCPTCGRIEIDLISIANEMEEYISKIRAPIKVAVLGCAVNGPGEAREADIGIAGARGEGLLFRKGEIVRKVPEETMVEELKKEIDKIAEEYFAKQKELEKALEHHHHHH | soluble |
| MTEKKERIDVHAYLAEFDDIPGTRVFTAQRARKGYNLNQFAMSLMKAENRERFKADESAYLDEWNLTPAAKAAVLARDYNAMIDEGGNVYFLSKLFSTDGKSFQFAAGSMTGMTQEEYAQMMIDGGRSPAGVRSIKGGY | soluble |
